Data from article PMC6016250.

Legend:
[1] = molecular target: Toll-like receptor 4 on the surface of RAW 264.7 murine macrophages (mouse (endogenous in RAW 264.7)) (UniProt Q9QUK6)
[2] = molecular target: Toll-like receptor 4 on the surface of RAW 264.7 murine macrophages (mouse (endogenous in RAW 264.7)) (UniProt Q9QUK6); remark: listed apart in the source
[3] = molecular target: Toll-like receptor 4 on the surface of RAW 264.7 murine macrophages (mouse (endogenous in RAW 264.7)) (UniProt Q9QUK6); remark: listed apart in the source

Sequence of UniProt Q9QUK6 (Q9QUK6 26-835): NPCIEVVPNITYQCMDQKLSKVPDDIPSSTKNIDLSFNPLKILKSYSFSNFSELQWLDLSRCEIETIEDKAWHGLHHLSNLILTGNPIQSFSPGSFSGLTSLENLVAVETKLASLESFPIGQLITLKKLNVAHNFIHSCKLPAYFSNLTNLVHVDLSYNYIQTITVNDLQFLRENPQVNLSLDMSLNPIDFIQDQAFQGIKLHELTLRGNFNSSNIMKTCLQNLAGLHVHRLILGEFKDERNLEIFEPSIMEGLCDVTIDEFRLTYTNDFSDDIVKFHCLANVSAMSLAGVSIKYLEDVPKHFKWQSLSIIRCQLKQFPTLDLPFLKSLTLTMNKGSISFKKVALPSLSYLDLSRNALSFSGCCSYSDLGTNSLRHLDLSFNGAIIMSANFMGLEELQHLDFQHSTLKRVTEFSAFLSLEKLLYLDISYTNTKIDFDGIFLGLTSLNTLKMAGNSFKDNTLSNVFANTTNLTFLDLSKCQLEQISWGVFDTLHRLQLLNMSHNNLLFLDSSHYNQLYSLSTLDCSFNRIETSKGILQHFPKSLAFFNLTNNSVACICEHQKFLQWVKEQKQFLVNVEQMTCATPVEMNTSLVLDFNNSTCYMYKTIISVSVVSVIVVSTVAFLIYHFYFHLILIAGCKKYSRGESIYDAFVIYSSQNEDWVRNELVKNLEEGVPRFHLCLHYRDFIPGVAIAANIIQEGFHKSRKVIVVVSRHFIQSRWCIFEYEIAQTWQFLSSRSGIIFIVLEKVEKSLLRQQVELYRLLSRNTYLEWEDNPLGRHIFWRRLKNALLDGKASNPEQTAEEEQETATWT

With “recombinant Rv0297PGRS (PGRS domain of the Mycobacterium tuberculosis PE_PGRS protein Rv0297) (from UniProt Q6MX50 1-591) (domain or fragment)” as the substance, how does the mortality of RAW 264.7 macrophages (alamarBlue assay, 48 h) with 2.5, 5, 10, 20 and 40 µg/ml rRv0297PGRS (12.42% to 36.07%); no significant change in RAW-ΔTLR4 cells [1] read?
Its mortality of RAW 264.7 macrophages (alamarBlue assay, 48 h) with 2.5, 5, 10, 20 and 40 µg/ml rRv0297PGRS (12.42% to 36.07%); no significant change in RAW-ΔTLR4 cells is 36.1%.

And the total percentage of apoptotic RAW 264.7 cells (annexin V/PI staining) with 20 and 40 µg/ml rRv0297PGRS (43.83% and 58.37%) [2]?
Its total percentage of apoptotic RAW 264.7 cells (annexin V/PI staining) with 20 and 40 µg/ml rRv0297PGRS (43.83% and 58.37%) is 58.4%.

And the fold increase of NO (Griess reagent) in RAW 264.7 cells stimulated with 20 µg/ml rRv0297PGRS for 30 h in contrast to unstimulated cells; unchanged in RAW-ΔTLR4 cells [3]?
Its fold increase of NO (Griess reagent) in RAW 264.7 cells stimulated with 20 µg/ml rRv0297PGRS for 30 h in contrast to unstimulated cells; unchanged in RAW-ΔTLR4 cells is 2 fold.

And the fold increment of ROS (CellROX green) in RAW 264.7 cells stimulated with rRv0297PGRS for 30 h compared to untreated cells (1.53 and 1.80); unchanged in RAW-ΔTLR4 cells [3]?
Its fold increment of ROS (CellROX green) in RAW 264.7 cells stimulated with rRv0297PGRS for 30 h compared to untreated cells (1.53 and 1.80); unchanged in RAW-ΔTLR4 cells is 1.8 fold.
